What was measured:
[1] = target: T1, His-tagged SARS-CoV-2 RBD (Severe acute respiratory syndrome …, UniProt P0DTC2); experiment: BLI; settings: both partners purified
[2] = target: T2, SARS-CoV-2 spike on intact virus (SARS-CoV-2/human/AUS/VIC01/2020) (SARS-CoV-2, isolate human/AUS/VIC01/2020); experiment: ELISA; whole virus ELISA: SARS-CoV-2 virus captured on plates coated with mouse anti-spike mAb31, serial dilutions of IgG or Fab, ALP anti-human IgG (Fab-specific); Kd = concentration at half-maximal binding by nonlinear regression; settings: one partner purified
T2 construct: also called intact SARS-CoV-2; virions; source: virus grown in Vero cells, supernatant; captured on plates by mAb31

[3] = target: T2, SARS-CoV-2 spike on intact virus …; experiment: cell-based or functional assay
[4] = target: His-tagged RBD for structural analysis (SARS-CoV-2 Wuhan-Hu-1 (MN908947), UniProt P0DTC2, treated with endoglycosidase H1; 'glycosylated RBD' was used for the complex with Fab S309 and Fab384); experiment: crystal structure; settings: both partners purified
[5] = target: T1, His-tagged SARS-CoV-2 RBD; experiment: BLI; competition assay, Octet RED96e, His-tagged RBD on Anti-HIS (HIS2) biosensors, saturating antibody 15 ug/ml then competing IgG 5 ug/ml; 10 mM HEPES pH 7.4, 150 mM NaCl; settings: both partners purified

B1: Fab 158 (Fab, V domains shown)
VH: EVQLLESGGDLIQPGGSLRLSCAASGVTVSSNYMSWVRQAPGKGLEWVSIIYPGGSTFYADSVKGRFTISRDNSKNTLYLQMHSLRAEDTAVYYCARDLGSGDMDVWGKGTTVTVSS
VL: DIVMTQSPSFLSASVGDRVTITCRASQGISSYLAWYQQKPGKAPKLLIQAASTLQSGVPSRFSGSGSGTEFTLTISSLQPEDFATYYCQQLNSYRYTFGQGTKVEIK
[1]
  Kd: 0.7 nM
  koff: 8.4e-05 s⁻¹
  kon: 120000 M⁻¹ s⁻¹
[2]
  Kd: 3.73 nM
[3]
  Table S7: Neutralization IC50 (nM), FRNT of authentic SARS-CoV-2, Fab: 4.12 nM

B2: Strep-tagged Fab 158 (Fab, V domains shown)
VH: EVQLLESGGDLIQPGGSLRLSCAASGVTVSSNYMSWVRQAPGKGLEWVSIIYPGGSTFYADSVKGRFTISRDNSKNTLYLQMHSLRAEDTAVYYCARDLGSGDMDVWGKGTTVTVSS
VL: DIVMTQSPSFLSASVGDRVTITCRASQGISSYLAWYQQKPGKAPKLLIQAASTLQSGVPSRFSGSGSGTEFTLTISSLQPEDFATYYCQQLNSYRYTFGQGTKVEIK
notes: also called Fab58 (as printed in the crystallization paragraph); source: HEK293T, transient transfection, purified (Strep-Tactin)
[4]
  binding result: binds

B3: mAb 158 (IgG) (antibody, V domains shown)
VH: EVQLLESGGDLIQPGGSLRLSCAASGVTVSSNYMSWVRQAPGKGLEWVSIIYPGGSTFYADSVKGRFTISRDNSKNTLYLQMHSLRAEDTAVYYCARDLGSGDMDVWGKGTTVTVSS
VL: DIVMTQSPSFLSASVGDRVTITCRASQGISSYLAWYQQKPGKAPKLLIQAASTLQSGVPSRFSGSGSGTEFTLTISSLQPEDFATYYCQQLNSYRYTFGQGTKVEIK
notes: IgG1
[2]
  Kd: 0.5 nM

B4: Fab 269 (Fab, V domains shown)
VH: QVQLVESGGGLIQPGGSLRLSCAASGLTVNRNYMSWIRQAPGKGLEWVSVIYSGGSTFYADSVKGRFTISRDNSKNTLSLQMNSLRAEDTAIYYCARDFYEGSFDIWGQGTMVTVSS
VL: AIQLTQSPSFLSASIGDRVTITCRASQGISSYLAWYQQKPGKAPKLLIYAASTLQSGVPSRFSGSGSGTEFTLTISSLQPEDFASYYCQQLNSYPAPVFGPGTKVDIK
[1]
  Kd: 2.2 nM
  koff: 0.00039 s⁻¹
  kon: 180000 M⁻¹ s⁻¹

B5: mAb 159 (IgG) (antibody, V domains shown)
VH: EVQLVESGGGVVQPGRSLRLSCAASGFTFSSYGMHWVRQAPGKGLEWVALISYDGGNRYYADSVKGRFTISRDNSKNTLYLQMNRLRAEDTAMYYCAKDRDDGWDWYYFMDVWGKGTTVTVSS
VL: DIQLTQSPGTLSLSPGERATLSCRASQSISGNYLAWYQHKPGQAPRLLIYGASTRATGIPDRFSGSGSGTDFTLTISRLEPEDFAVYYCQQYGSSYTFGQGTKVEIK
notes: IgG1; also called 159 (anti-spike); IgG159
[2]
  Kd: 0.19 nM

B6: Fab 159 (Fab, V domains shown)
VH: EVQLVESGGGVVQPGRSLRLSCAASGFTFSSYGMHWVRQAPGKGLEWVALISYDGGNRYYADSVKGRFTISRDNSKNTLYLQMNRLRAEDTAMYYCAKDRDDGWDWYYFMDVWGKGTTVTVSS
VL: DIQLTQSPGTLSLSPGERATLSCRASQSISGNYLAWYQHKPGQAPRLLIYGASTRATGIPDRFSGSGSGTDFTLTISRLEPEDFAVYYCQQYGSSYTFGQGTKVEIK
notes: also called 159 Fab
[2]
  Kd: 0.29 nM

B7: Fab 150 (Fab, V domains shown)
VH: QVQLVESGGGLIQPGGSLRLSCAASGVTVSSNYMSWVRQAPGKGLEWVSIIYSGGTTYYADSVKGRFTISRDSSMNTLYLQMNSLRAEDTAVYYCARDLMVYGIDVWGQGTTVTVSS
VL: EIVMTQSPSSLSASVGDRVTITCRASQGISSYLAWYQQKPGKAPKLLIYAASTLQSGVPSRFSGSGSGTDFTLTISSLQPEDFATYYCQQLDSYPPGYTFGQGTKVDIK
[2]
  Kd: 0.75 nM
[3]
  Table S7: Neutralization IC50 (nM), FRNT of authentic SARS-CoV-2, Fab: 0.61 nM

B8: mAb 150 (IgG) (antibody, V domains shown)
VH: QVQLVESGGGLIQPGGSLRLSCAASGVTVSSNYMSWVRQAPGKGLEWVSIIYSGGTTYYADSVKGRFTISRDSSMNTLYLQMNSLRAEDTAVYYCARDLMVYGIDVWGQGTTVTVSS
VL: EIVMTQSPSSLSASVGDRVTITCRASQGISSYLAWYQQKPGKAPKLLIYAASTLQSGVPSRFSGSGSGTDFTLTISSLQPEDFATYYCQQLDSYPPGYTFGQGTKVDIK
notes: IgG1
[2]
  Kd: 0.24 nM

B9: Fab 45 (Fab, V domains shown)
VH: QVQLVESGGGVVQPGRSLRLSCAASGFTFSTYAMHWVRQAPGKGLEWVAVLSYDGSNKYYADSVKGRFTISRDNSKNTLYLQMNSLRAEDTAVYYCAKGGSYAYYYYMDVWGKGTTVTVSS
VL: not shown
[1]
  Kd: 5.9 nM
  koff: 0.00046 s⁻¹
  kon: 78000 M⁻¹ s⁻¹

B10: Fab 40 (Fab, V domains shown)
VH: QVQLVESGGGLVQPGGSLRLSCAVSGFTVSRNYMSWVRQAPGKGLEWVSLIYSGGSTFYADSVKGRFTISRDNSKNTLYLQMNSLRAEDTAVYYCARDLFHRSGYHDYWGQGTLVTVSS
VL: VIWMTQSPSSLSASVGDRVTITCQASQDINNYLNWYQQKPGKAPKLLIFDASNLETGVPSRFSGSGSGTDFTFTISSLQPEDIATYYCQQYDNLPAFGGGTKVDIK
notes: also called 40 Fab
[2]
  Kd: 1.23 nM
[3]
  Table S7: Neutralization IC50 (nM), FRNT of authentic SARS-CoV-2, Fab: 45.7 nM

B11: mAb 40 (IgG) (antibody, V domains shown)
VH: QVQLVESGGGLVQPGGSLRLSCAVSGFTVSRNYMSWVRQAPGKGLEWVSLIYSGGSTFYADSVKGRFTISRDNSKNTLYLQMNSLRAEDTAVYYCARDLFHRSGYHDYWGQGTLVTVSS
VL: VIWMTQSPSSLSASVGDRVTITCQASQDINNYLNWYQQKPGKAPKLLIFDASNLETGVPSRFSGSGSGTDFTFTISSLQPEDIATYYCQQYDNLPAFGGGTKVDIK
notes: IgG1
[2]
  Kd: 0.33 nM

B12: mAb 75 (IgG) (antibody, V domains shown)
VH: QVQLVESGGGVVQPGRSLRLSCAASGFTFNNYPLHWVRQAPGKGPEWVAVISQDGGNKYYVDSVKGRFTISRDNSKNTLYLQMNNLRAEDTALYYCARDVVVVVAARNHYYNGMDVWGQGTTVTVSS
VL: DIQLTQSPSSVSASVGDRVTITCRASQGISSWLAWYQQKPGKAPKLLIYAVSSLQSGVPSRFSGSGSGTDFTLTISSLQPEDFATYYCQQAKSFPFTFGPGTKVEIK
notes: IgG1
[5]
  binding result: binds

B13: Fab75 (Fab, V domains shown)
VH: QVQLVESGGGVVQPGRSLRLSCAASGFTFNNYPLHWVRQAPGKGPEWVAVISQDGGNKYYVDSVKGRFTISRDNSKNTLYLQMNNLRAEDTALYYCARDVVVVVAARNHYYNGMDVWGQGTTVTVSS
VL: DIQLTQSPSSVSASVGDRVTITCRASQGISSWLAWYQQKPGKAPKLLIYAVSSLQSGVPSRFSGSGSGTDFTLTISSLQPEDFATYYCQQAKSFPFTFGPGTKVEIK
notes: also called mAb 75
[4]
  binding result: binds

B14: chimeric mAb 253H165L (IgG) (antibody, V domains shown)
VH: not shown
VL: DIVMTQSPGTLSLSPGERATLSCRASQSVRSSYLAWYQQKPGQAPRLLIYGASRRGTGIPDRFSGSGSGTDFTLTISRLEPEDFAVYYCQQYGSSPWTFGQGTKVEIK
[2]
  Kd: 0.09 nM
[3]
  Table S7: Neutralization IC50 (nM), FRNT of authentic SARS-CoV-2: 0.03 nM

B15: chimeric Fab 253H165L (Fab, V domains shown)
VH: not shown
VL: DIVMTQSPGTLSLSPGERATLSCRASQSVRSSYLAWYQQKPGQAPRLLIYGASRRGTGIPDRFSGSGSGTDFTLTISRLEPEDFAVYYCQQYGSSPWTFGQGTKVEIK
[2]
  Kd: 5.02 nM
[3]
  Table S7: Neutralization IC50 (nM), FRNT of authentic SARS-CoV-2, Fab: 5.22 nM

B16: Fab 316 (Fab, V domains shown)
VH: not shown
VL: QAVLTQPPSASGSPGQSVTISCTGTSSDVGGYNYVSWYQQHPGKAPKLMIYEVSKRPSGVPDRFSGSKSGNTASLTVSGLQAEDEADYYCSSYAGSNHWVFGGGTKLTVL
[1]
  koff: 0.00071 s⁻¹
  kon: 350000 M⁻¹ s⁻¹
[2]
  Kd: 8.76 nM
[3]
  Table S7: Neutralization IC50 (nM), FRNT of authentic SARS-CoV-2, Fab: 27.6 nM

B17: mAb 316 (IgG) (antibody, V domains shown)
VH: not shown
VL: QAVLTQPPSASGSPGQSVTISCTGTSSDVGGYNYVSWYQQHPGKAPKLMIYEVSKRPSGVPDRFSGSKSGNTASLTVSGLQAEDEADYYCSSYAGSNHWVFGGGTKLTVL
notes: IgG1
[2]
  Kd: 0.13 nM

B18: Fab 88 (Fab, V domains shown)
VH: QLQLQESGPGLVKPSQTLSLTCTVSGGSISSGSYNWTWIRQPAGKGLEWIGRIYNSGSTNYNPSLKSRVTISVDTSKNQLSLKVRSVTAADTAVYYCARHCSGGTCYPKYYYGMDVWGQGTTVTVSS
VL: QSALTQPPSVSEAPRQRVTISCSGSSSNIGNNAVNWYQQFPGKAPKLLIYYDDLLPSGVSDRFSGSKSGTSASLAISGVQSEDEADYYCAAWDDSLNVVVFGGGTKLTVL
notes: also called 88 Fab
[2]
  Kd: 1.21 nM
[3]
  Table S7: Neutralization IC50 (nM), FRNT of authentic SARS-CoV-2, Fab: 6.95 nM

B19: mAb 88 (IgG) (antibody, V domains shown)
VH: QLQLQESGPGLVKPSQTLSLTCTVSGGSISSGSYNWTWIRQPAGKGLEWIGRIYNSGSTNYNPSLKSRVTISVDTSKNQLSLKVRSVTAADTAVYYCARHCSGGTCYPKYYYGMDVWGQGTTVTVSS
VL: QSALTQPPSVSEAPRQRVTISCSGSSSNIGNNAVNWYQQFPGKAPKLLIYYDDLLPSGVSDRFSGSKSGTSASLAISGVQSEDEADYYCAAWDDSLNVVVFGGGTKLTVL
notes: IgG1
[2]
  Kd: 0.25 nM

B20: mAb 384 (IgG) (antibody, V domains shown)
VH: EVQLVESGGGLVKPGESLRLSCAASGFTFSDYYMTWIRQAPGKGLEWVSYIRSSGHTIYYADSVKGRFTISRDNAKNSLYLQMNSLRVEDTAVYYCARGGVLRFLEWPLNAFDIWGQGTMVTVSS
VL: DIQLTQSPSSLSASVGDRVTITCRASQGISNYLAWYQQKPGKVPKLLIYAASTLQSGVPSRFSGSGSGTDFTLTISSLQPEDVATYYCQKYNNALGTFGQGTKVEIK
notes: IgG1
[5]
  binding result: binds

B21: Fab384 (Fab, V domains shown)
VH: EVQLVESGGGLVKPGESLRLSCAASGFTFSDYYMTWIRQAPGKGLEWVSYIRSSGHTIYYADSVKGRFTISRDNAKNSLYLQMNSLRVEDTAVYYCARGGVLRFLEWPLNAFDIWGQGTMVTVSS
VL: DIQLTQSPSSLSASVGDRVTITCRASQGISNYLAWYQQKPGKVPKLLIYAASTLQSGVPSRFSGSGSGTDFTLTISSLQPEDVATYYCQKYNNALGTFGQGTKVEIK
[4]
  binding result: binds
